Measured values taken from US6794491B1, “Polypeptides, their production and use” (Takeda Chemical Industries, Ltd., priority 1995, dated 2004).
“Also recorded” adds a separate entry of the source. Where no end group is shown, it is not given here. [ ]: non-standard residue; d: D form. Met(O) = CS(=O)CC[C@H](N)C(=O)O

Assays:
[1] = molecular target: T1, full-length receptor protein expressed CHO cells (CHO-19P2); human pituitary receptor protein (hGR3) (Homo sapiens, UniProt P49683); test: release of arachidonic acid metabolites from CHO-19P2 cells; assay type: cell-based; conditions: for arachidonic acid metabolite-releasing activity: amount of [3H]arachidonic acid metabolites, 10^−12 M-10^−6 M in 0.05% BSA-HBSS
T1 construct: to construct a full-length receptor protein expression plasmid pAKKO-19P2; expressed in transfected cells; host or cells: CHO dhfr- cells transfected with pAKKO-19P2 (CHO-19P2; clone CHO-19P2-9)
T1 sequence (P49683 1-370): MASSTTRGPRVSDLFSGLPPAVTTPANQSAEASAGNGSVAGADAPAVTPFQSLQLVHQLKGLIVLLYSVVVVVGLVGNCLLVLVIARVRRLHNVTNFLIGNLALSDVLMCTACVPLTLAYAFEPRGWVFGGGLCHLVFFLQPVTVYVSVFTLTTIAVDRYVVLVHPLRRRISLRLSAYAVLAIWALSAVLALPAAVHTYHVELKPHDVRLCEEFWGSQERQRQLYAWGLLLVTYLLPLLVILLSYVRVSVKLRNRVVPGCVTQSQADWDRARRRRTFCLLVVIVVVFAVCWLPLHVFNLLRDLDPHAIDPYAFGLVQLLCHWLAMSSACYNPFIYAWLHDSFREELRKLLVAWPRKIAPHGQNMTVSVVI
Procedure: The full-length receptor protein-expressed CHO cells and mock CHO cells were seeded in a 24-well plate, 0.5×10^5 cells/well, and cultured for 24 hours. Then, [^3H] arachidonic acid was added at a final concentration of 0.25 μCi/well. Sixteen (16) hours after addition of [^3H] arachidonic acid, the cells were rinsed with 0.05% BSA-HBSS and the above-mentioned crude peptide fraction was added, 400 μl/well. The mixture was incubated at 37° C. for 30 minutes and a 300 μl portion of the reaction mixture (400 μl) was added to 4 ml of a scintillator and the amount of [^3H] arachidonic acid metabolite released into the reaction mixture was determined with a scintillation counter.
The activity of the peptide (19P2-L31) synthesized in Example 21 to specifically release arachidonic acid metabolites from CHO-19P2 cells was assayed in the same manner as Example 11. The synthetic peptide was dissolved in degassed dH20 at a concentration of 10^−3M and diluted with 0.05% BSA-HBSS and the activity to promote release of arachidonic acid metabolites from CHO-19P2 cells at each concentration was assayed using the amount of [^3H]arachidonic acid metabolites as the indicator.
The activity of the synthetic equivalent (19P2-L20) of natural peptide P-2 as synthesized in Example 23 to specifically promote release of arachidonic acid metabolites from CHO-19P2 cells was determined as in Example 11. Thus, the synthetic peptide was dissolved in degassed dH2O at a final concentration of 10^−3M and this solution was serially diluted with 0.05% BAS-HBSS. The activity to specifically promote release of arachidonic acid metabolites from CHO-19P2 cells at each concentration was assayed using the amount of [^3H]arachidonic acid metabolites as the indicator.

[2] = plasma growth hormone (GH) level in freely moving rats, GHRH-induced; assay type: in vivo, male Wistar rats; conditions: 5 μg/kg GHRH intravenously
Procedure: Mature male Wistar rats were anesthetized with pentobarbital 50 mg/kg i.p. and, as in Example 41, a stainless-steel guide cannula AG-12 (0.4 mm in. dia., 0.5 mm out. dia., EICOM) was implanted in position with its tip situated in the upper part of the third ventricle. After the operation the rats were housed in individual cages and kept for at least 3 days for recuperation and, then, a cannula (30 cm long, 0.5 mm in. dia., 0.9 mm out. dia., Natsume Seisakusho) filled with heparin (200 U/ml)-containing saline was inserted into the right atrium from the right jugular vein under pentobarbital anesthesia. The rats were maintained overnight for complete arousal from anesthesia and then transferred to transparent acrylic cages (30 cm×30 cm×35 cm). A 1 ml tuberculin syringe with a 24-G needle (both by Termo) was connected to the cannula inserted in the atrium and 300 μl of blood was drawn. To prevent clotting, the syringe was filled with 20 μl of saline containing 200 U/ml of heparin beforehand. […] The concentrations of GH in the plasma were determined by radioimmunoassay.
The results were expressed as a mean±S.E.M. To test for significant difference between the group treated with 19P2-L31 dissolved in PBS and the control group treated with PBS alone, Student's t-test was used. […]

Substance | arachidonic acid metabolite-releasing activity compared with that of 19P2-L31 [1] | arachidonic acid metabolite-releasing activity [1] | plasma GH level [2]
Thr-Pro-Asp-Ile-Aln-Pro-Ala-Trp-Tyr-Ala-Gly-Arg-Gly-Ile-Arg-Pro-Val-Gly-Arg-Phe-NH2 (TPDINPAWYAGRGIRPVGRF-NH2; also: position 5 written 'Aln' in name, letter N) [19P2-L20] | in nearly the same degree as 19P2-L31 | concentration-dependent arachidonic acid metabolite-releasing activity was detected over the range of 10^−12-10^−6M; also recorded: found in a dose-dependent manner | 
GHRH: Growth hormone releasing hormone (YADAIFTNSYRKVLGQLSARKLLQDIMSRQQGESNQERGARARL; ends and bridges not checked; UniProt P01286 32-75, looked up) [reference compound] |  |  | elevated the plasma GH level
19P2-L31(O): the methionine-oxidation product of 19P2-L31 synthesized in Example 22 (SRAHQHS[Met(O)]EIRTPDINPAWYAGRGIRPVGRF-NH2; N-terminus assumed; SMILES CC[C@H](C)[C@H](NC(=O)CNC(=O)[C@H](CCCNC(=N)N)NC(=O)CNC(=O)[C@H](C)NC(=O)[C@H](Cc1ccc(O)cc1)NC(=O)[C@H](Cc1c[nH]c2ccccc12)NC(=O)[C@H](C)NC(=O)[C@@H]1CCCN1C(=O)[C@H](CC(N)=O)NC(=O)[C@@H](NC(=O)[C@H](CC(=O)O)NC(=O)[C@@H]1CCCN1C(=O)[C@@H](NC(=O)[C@H](CCCNC(=N)N)NC(=O)[C@@H](NC(=O)[C@H](CCC(=O)O)NC(=O)[C@H](CCS(C)=O)NC(=O)[C@H](CO)NC(=O)[C@H](Cc1c[nH]cn1)NC(=O)[C@H](CCC(N)=O)NC(=O)[C@H](Cc1c[nH]cn1)NC(=O)[C@H](C)NC(=O)[C@H](CCCNC(=N)N)NC(=O)[C@@H](N)CO)[C@@H](C)CC)[C@@H](C)O)[C@@H](C)CC)C(=O)N[C@@H](CCCNC(=N)N)C(=O)N1CCC[C@H]1C(=O)N[C@H](C(=O)NCC(=O)N[C@@H](CCCNC(=N)N)C(=O)N[C@@H](Cc1ccccc1)C(N)=O)C(C)C) | equivalent to the activity of 19P2-L31 | found in a dose-dependent manner | 
